Data on 2 proteins can be found in patent US5866392A, “Cellobiose oxidase, and enzymatic agent and a process for treating paper pulp” (priority 1992, dated 1999).

Substrate in data set [1]: CC(C)(C)C1=CC(=O)C(=O)C(C(C)(C)C)=C1
The data set can be described thus: purified protein, by the assay type. The note with it: other: electron acceptor + 225 μM cellobiose, 0.1M sodium phosphate buffer, pH 7.5, 40° C.

Substrate in data set [2]: CN(C)c1ccc2nc3ccc(=[N+](C)C)cc-3sc2c1
The data set can be described thus: purified protein, by the assay type. The note with it: other: electron acceptor + 225 μM cellobiose, 0.1M sodium phosphate buffer, pH 7.5, 40° C.

Substrate in data set [3]: O=C1C(Cl)=CC(=Nc2ccc(O)cc2)C=C1Cl
The data set can be described thus: purified protein, by the assay type. The note with it: other: electron acceptor + 225 μM cellobiose, 0.1M sodium phosphate buffer, pH 7.5, 40° C.

Substrate in data set [4]: OC[C@H]1O[C@@H](O[C@H]2[C@H](O)[C@@H](O)C(O)O[C@@H]2CO)[C@H](O)[C@@H](O)[C@@H]1O
The data set can be described thus: purified protein, by the assay type. The conditions noted are these: other: sugar + 90 μM DCPIP, 0.1M sodium phosphate buffer, pH 7.5, 40° C.

Substrate in data set [5]: OC[C@H]1O[C@@H](O[C@H]2[C@H](O)[C@@H](O)C(O)O[C@@H]2CO)[C@H](O)[C@@H](O)[C@H]1O
The data set can be described thus: purified protein, by the assay type. The conditions noted are these: other: sugar + 90 μM DCPIP, 0.1M sodium phosphate buffer, pH 7.5, 40° C.

Substrate in data set [6]: OC[C@H]1O[C@@H](O[C@H]2[C@H](O)[C@@H](O)[C@H](O[C@H]3[C@H](O)[C@@H](O)C(O)O[C@@H]3CO)O[C@@H]2CO)[C@H](O)[C@@H](O)[C@@H]1O
Nature of the data set: purified protein, by the assay type. The note with it: other: sugar + 90 μM DCPIP, 0.1M sodium phosphate buffer, pH 7.5, 40° C.

Substrate in data set [7]: OC[C@H]1O[C@@H](O[C@H]2[C@H](O)[C@@H](O)[C@H](O[C@H]3[C@H](O)[C@@H](O)[C@H](O[C@H]4[C@H](O)[C@@H](O)C(O)O[C@@H]4CO)O[C@@H]3CO)O[C@@H]2CO)[C@H](O)[C@@H](O)[C@@H]1O
The data set can be described thus: purified protein, by the assay type. The note with it: other: sugar + 90 μM DCPIP, 0.1M sodium phosphate buffer, pH 7.5, 40° C.

Substrate in data set [8]: OC[C@H]1O[C@H](O[C@H]2[C@H](O)[C@@H](O)[C@H](O)O[C@@H]2CO)[C@H](O)[C@@H](O)[C@@H]1O
The data set can be described thus: purified protein, by the assay type. The note with it: other: sugar + 90 μM DCPIP, 0.1M sodium phosphate buffer, pH 7.5, 40° C.

Substrate in data set [9]: OC[C@@H](O)[C@@H](O[C@@H]1O[C@H](CO)[C@@H](O[C@@H]2O[C@H](CO)[C@@H](O[C@@H]3O[C@H](CO)[C@@H](O)[C@H](O)[C@H]3O)[C@H](O)[C@H]2O)[C@H](O)[C@H]1O)[C@H](O)[C@@H](O)CO
The data set can be described thus: Coupled cellobiose oxidase/DCPIP assay for cellulases. Format: biochemical. The conditions noted are these: other: CBH II; reduced cellodextrin substrate. An excerpt:
(§1) The ability of the cellobiose oxidase to oxidize cellodextrins by means of an electron acceptor was utilized in an assay for cellulases. […] With this assay the kinetic constants for reduced cellodextrins of 5 different cellulases have been determined (table 2). […] The enzymes show very different substrate specificity, some of them requiring quite long substrates making it impossible to use the umbelliferyl cellobiosides and lactosides available for steady state kinetic. […] The inhibition constants were determined for two cellulases using the developed assay.

Substrate in data set [10]: OC[C@@H](O)[C@@H](O[C@@H]1O[C@H](CO)[C@@H](O[C@@H]2O[C@H](CO)[C@@H](O[C@@H]3O[C@H](CO)[C@@H](O[C@@H]4O[C@H](CO)[C@@H](O)[C@H](O)[C@H]4O)[C@H](O)[C@H]3O)[C@H](O)[C@H]2O)[C@H](O)[C@H]1O)[C@H](O)[C@@H](O)CO
The data set is described as above. The note with it: other: CBH II; reduced cellodextrin substrate. The data set is classed as biochemical.
From the text: as §1

Substrate in data set [11]: OC[C@@H](O)[C@@H](O[C@@H]1O[C@H](CO)[C@@H](O[C@@H]2O[C@H](CO)[C@@H](O[C@@H]3O[C@H](CO)[C@@H](O[C@@H]4O[C@H](CO)[C@@H](O[C@@H]5O[C@H](CO)[C@@H](O)[C@H](O)[C@H]5O)[C@H](O)[C@H]4O)[C@H](O)[C@H]3O)[C@H](O)[C@H]2O)[C@H](O)[C@H]1O)[C@H](O)[C@@H](O)CO
The description is as above. Format: biochemical. The conditions noted are these: other: CBH II; reduced cellodextrin substrate.
From the text: as §1

B1: Humicola insolens cellobiose oxidase (CBO, 92 kDa, pI 4.0) (Mycothermus thermophilus) (protein)
chain: QATGDAYTDSETGIKFQTWSPDPQFTFGLALPPDALEKDATEYIGLLRCTRADPSDPGYCGLSHGQVGQMTQSLLLVAWAYENQVYTSFRYATGYTLPGLYTGNAKLTQLSVNITDTSFELIYRCENCFSWEHEGSTGSSSTSQGYLVLGRASARRGVVGPTCPDTATFGFHDNGFGQWGVGLENAVSEQYSEWASLPGLTVETTCEGSGPGEAQCVPAPEETYDYIVVGAGAGGIPVADKLSEAGHKVLLIEKGPPSTGRWQGTMKPEWLEGTDLTRFDVPGLCNQIWVDSAGIACTDTDQMAGCVLGGGTAVNAGLWWKPIDLDWDENFPEGWHSQDLAAATERVFERIPGTWHPSMDGKLYRDEGYKVLSSGLAESGWKEVVANEVPNEKNRTFAHTHFMFAGGERNGPLATYLVSADARENFSLWTNTAVRRAVRTGGKVTGVELECLTDGGYSGIVKLNEGGGVIFSAGAFGSAKLLFRSGIGPEDQLRVVASSKDGEDFIDEKDWIKLPVGYNLIDHLNTDLILTHPDVVFYDFYEAWTTPIEADKQLYLEQRSGILAQAAPNIGPMMWEQVTPSDGITRQFQWTARVEGDSRFTNSSHAMTLSQYLGRGVVSRGRATITQGLVTTVAEHPYLHNAGDKEAVIQGIKNLIESLNVIPNITWVLPPPGSTVEEYVDSLLVSASARRSNHWMGTAKLGTDDGRYGGTSVVDLDTKVYGTDNLFVVDASIFPGMSTGNPSAMIVIAAEQAAERILKLRK
B1: the Km is 132 µM in data set [1]; 18 µM in data set [2]; 26 µM in data set [3]; 11 µM in [4]; 51 µM in data set [5]; 19 µM in [6]. The figures for the Km in data set [7] and in data set [8] were 21 µM and 11,000 μM, respectively. For the same protein, the kcat came to 1.85 s⁻¹ in [2]; 12 s⁻¹ in data set [3]; 10 s⁻¹ in [4]; 10 s⁻¹ in [5]; 0.83 s⁻¹ in [8].

B2: CBH II (cellulase) (Mycothermus thermophilus) (protein)
chain: APVVEERQNCAPTWGQCGGIGFNGPTCCQSGSTCVKQNDWYSQCLPGSQVTTTSTTSTSSSSTTSRATSTTRTGGVTSITTAPTRTVTIPGGATTTASYNGNPFEGVQLWANNYYRSEVHTLAIPQITDPALRAAASAVAEVPSFQWLDRNVTVDTLLVETLSEIRAANQAGANPPYAAQIVVYDLPDRDCAAAASNGEWAIANNGANNYKGYINRIREILISFSDVRTILVIEPDSLANMVTNMNVAKCSGAASTYRELTIYALKQLDLPHVAMYMDAGHAGWLGWPANIQPAAELFAKIYEDAGKPRAVRGLATNVANYNAWSISSPPPYTSPNPNYDEKHYIEAFRPLLEARGFPAQFIVDQGRSGKQPTGQKEWGHWCNAIGTGFGMRPTANTGHQYVDAFVWVKPGGECDGTSDTTAARYDYHCGLEDALKPAPEAGQWFQAYFEQLLRNANPPF
Take B2: the Km in data set [9] was 490 µM; in data set [10], 3 µM; in data set [11], 4.7 µM.

What is called Km is the concentration of substrate that gives half-maximal velocity. One may read the kcat as the maximal rate divided by the concentration of active sites.
